In the supplement of paper PMC10065799, “High-throughput profiling of sequence recognition by tyrosine kinases and SH2 domains using bacterial peptide display” (eLife, 2023):

How the values were obtained:
[1] = test system: AncSZ; test: phosphorylation enrichment, bacterial display (enrichment ratio); higher = better substrate or ligand; peptides without Tyr show the background
[2] = target: EPHB1 (UniProt P54762); test: as above
[3] = target: EPHB2 (UniProt P29323); test: as above
[4] = target: FGFR1 (UniProt P11362); test: as above
[5] = target: FGFR3 (UniProt P22607); test: as above
[6] = test system: Fer (mouse); test: as above
[7] = target: Fes (UniProt P07332); test: as above
[8] = target: Fyn (UniProt P06241); test: as above
[9] = target: Hck (UniProt P08631); test: as above
[10] = target: Jak2 (UniProt O60674); test: as above
[11] = target: MERTK (UniProt Q12866); test: as above
[12] = test system: c-Abl (mouse); test: as above
[13] = test system: c-Src; test: as above
[14] = target: Grb2 SH2 (UniProt P62993); test: SH2 binding enrichment of the phosphorylated peptide, bacterial display (enrichment ratio); higher = better substrate or ligand; peptides without Tyr show the background
[15] = target: SHP2-C SH2; test: as above
[16] = target: c-Src SH2; test: as above
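For SH2 binding enrichment of the phosphorylated peptide, bacterial display in this document: peptide library displayed on the E. coli surface as eCPX fusions, selected cells deep-sequenced, score is each peptide's frequency after selection divided by its frequency in the input.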
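For phosphorylation enrichment, bacterial display in this document: 11-residue human phosphosite peptides and single-mutation variants displayed on the E. coli surface, counted by deep sequencing, each peptide's frequency after selection divided by its frequency in the unselected input library; frequency after pTyr selection over input frequency; kinase dosed for 20-30% of maximal phosphorylation in three min.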

Chain of Fes (P07332 whole entry, looked up): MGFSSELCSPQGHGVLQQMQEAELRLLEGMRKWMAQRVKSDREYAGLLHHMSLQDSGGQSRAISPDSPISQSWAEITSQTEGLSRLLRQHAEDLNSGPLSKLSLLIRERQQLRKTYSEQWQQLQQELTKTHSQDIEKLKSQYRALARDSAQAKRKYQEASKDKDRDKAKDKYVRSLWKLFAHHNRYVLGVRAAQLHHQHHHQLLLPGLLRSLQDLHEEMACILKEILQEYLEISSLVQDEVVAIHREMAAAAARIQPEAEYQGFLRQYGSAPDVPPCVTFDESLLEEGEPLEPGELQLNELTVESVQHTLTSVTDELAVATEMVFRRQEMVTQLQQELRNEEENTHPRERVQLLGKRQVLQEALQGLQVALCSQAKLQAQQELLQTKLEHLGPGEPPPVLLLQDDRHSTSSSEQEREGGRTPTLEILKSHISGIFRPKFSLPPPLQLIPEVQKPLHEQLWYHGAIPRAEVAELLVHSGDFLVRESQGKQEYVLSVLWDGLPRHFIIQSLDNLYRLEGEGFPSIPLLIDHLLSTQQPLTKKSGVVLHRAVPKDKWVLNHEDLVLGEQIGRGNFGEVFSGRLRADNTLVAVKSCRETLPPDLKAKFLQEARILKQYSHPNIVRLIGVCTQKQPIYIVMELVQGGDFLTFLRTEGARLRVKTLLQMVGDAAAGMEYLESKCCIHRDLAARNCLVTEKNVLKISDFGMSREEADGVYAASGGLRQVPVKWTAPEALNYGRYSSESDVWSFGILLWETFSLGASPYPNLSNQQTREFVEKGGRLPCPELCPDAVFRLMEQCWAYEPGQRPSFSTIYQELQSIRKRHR
Chain of Fyn (P06241 whole entry, looked up): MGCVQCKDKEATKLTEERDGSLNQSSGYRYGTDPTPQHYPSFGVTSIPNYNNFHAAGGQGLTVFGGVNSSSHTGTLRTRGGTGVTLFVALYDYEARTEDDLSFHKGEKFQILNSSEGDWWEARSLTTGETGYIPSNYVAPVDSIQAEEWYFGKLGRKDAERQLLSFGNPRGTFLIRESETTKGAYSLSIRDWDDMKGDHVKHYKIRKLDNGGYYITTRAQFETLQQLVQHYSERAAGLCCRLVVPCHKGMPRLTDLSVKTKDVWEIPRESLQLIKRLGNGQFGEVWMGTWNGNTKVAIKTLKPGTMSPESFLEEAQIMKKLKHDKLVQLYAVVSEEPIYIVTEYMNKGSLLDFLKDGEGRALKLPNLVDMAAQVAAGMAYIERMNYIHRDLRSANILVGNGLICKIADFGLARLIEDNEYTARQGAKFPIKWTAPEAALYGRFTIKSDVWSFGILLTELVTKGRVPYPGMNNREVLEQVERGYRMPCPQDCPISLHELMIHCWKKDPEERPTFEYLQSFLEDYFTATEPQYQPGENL
Chain of EPHB2 (P29323 whole entry, looked up): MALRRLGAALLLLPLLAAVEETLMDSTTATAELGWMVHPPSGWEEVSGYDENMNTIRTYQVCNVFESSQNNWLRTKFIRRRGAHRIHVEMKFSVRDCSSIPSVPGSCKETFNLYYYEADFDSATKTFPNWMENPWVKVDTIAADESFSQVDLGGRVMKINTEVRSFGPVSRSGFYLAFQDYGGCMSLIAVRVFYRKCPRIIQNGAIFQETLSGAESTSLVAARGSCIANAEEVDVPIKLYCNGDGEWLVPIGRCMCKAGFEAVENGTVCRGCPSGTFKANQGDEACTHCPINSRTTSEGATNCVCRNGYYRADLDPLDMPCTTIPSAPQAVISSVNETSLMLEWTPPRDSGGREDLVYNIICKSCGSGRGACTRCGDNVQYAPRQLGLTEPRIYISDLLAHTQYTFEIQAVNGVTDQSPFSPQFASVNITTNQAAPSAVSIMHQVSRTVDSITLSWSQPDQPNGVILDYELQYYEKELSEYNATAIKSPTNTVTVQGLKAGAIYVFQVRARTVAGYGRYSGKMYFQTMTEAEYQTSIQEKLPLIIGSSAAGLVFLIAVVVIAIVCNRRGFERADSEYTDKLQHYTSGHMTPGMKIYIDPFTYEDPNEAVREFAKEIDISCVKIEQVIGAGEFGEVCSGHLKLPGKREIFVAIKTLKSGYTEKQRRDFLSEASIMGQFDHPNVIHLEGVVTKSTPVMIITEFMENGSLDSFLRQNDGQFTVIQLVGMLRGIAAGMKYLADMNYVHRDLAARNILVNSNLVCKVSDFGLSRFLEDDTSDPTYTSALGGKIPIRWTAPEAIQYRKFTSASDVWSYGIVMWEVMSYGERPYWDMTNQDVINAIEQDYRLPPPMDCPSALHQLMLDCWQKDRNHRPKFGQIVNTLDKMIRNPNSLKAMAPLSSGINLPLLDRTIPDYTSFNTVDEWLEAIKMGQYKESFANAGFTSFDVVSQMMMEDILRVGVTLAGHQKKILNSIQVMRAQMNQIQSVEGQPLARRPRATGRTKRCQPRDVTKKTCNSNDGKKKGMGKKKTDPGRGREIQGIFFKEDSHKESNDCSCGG
Chain of EPHB1 (P54762 whole entry, looked up): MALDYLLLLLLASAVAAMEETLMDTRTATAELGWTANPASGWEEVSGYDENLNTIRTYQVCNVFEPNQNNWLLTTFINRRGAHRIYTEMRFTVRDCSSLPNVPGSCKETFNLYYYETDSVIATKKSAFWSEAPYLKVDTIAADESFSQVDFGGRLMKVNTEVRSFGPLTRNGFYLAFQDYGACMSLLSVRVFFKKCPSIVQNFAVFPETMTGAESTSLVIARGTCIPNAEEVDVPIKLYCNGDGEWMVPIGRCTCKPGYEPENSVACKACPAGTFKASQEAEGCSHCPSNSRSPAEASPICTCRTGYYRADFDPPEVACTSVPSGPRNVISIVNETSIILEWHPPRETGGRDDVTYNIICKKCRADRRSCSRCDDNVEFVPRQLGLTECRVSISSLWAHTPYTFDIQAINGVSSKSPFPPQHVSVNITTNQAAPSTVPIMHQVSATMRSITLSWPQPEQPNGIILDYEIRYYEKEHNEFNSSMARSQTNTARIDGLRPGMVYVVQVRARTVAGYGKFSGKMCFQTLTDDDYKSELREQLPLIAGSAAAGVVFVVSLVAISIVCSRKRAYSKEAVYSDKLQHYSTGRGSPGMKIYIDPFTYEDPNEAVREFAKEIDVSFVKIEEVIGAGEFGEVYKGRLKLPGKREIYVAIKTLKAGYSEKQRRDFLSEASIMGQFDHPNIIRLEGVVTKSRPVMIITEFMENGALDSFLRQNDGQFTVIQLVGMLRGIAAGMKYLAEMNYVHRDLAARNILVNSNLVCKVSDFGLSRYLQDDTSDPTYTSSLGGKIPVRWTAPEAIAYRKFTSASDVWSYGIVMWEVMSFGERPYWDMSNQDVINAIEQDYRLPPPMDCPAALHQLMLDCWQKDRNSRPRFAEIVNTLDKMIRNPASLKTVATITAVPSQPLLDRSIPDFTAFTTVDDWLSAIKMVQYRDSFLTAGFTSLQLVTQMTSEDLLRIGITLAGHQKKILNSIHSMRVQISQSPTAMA
Chain of FGFR1 (P11362 whole entry, looked up): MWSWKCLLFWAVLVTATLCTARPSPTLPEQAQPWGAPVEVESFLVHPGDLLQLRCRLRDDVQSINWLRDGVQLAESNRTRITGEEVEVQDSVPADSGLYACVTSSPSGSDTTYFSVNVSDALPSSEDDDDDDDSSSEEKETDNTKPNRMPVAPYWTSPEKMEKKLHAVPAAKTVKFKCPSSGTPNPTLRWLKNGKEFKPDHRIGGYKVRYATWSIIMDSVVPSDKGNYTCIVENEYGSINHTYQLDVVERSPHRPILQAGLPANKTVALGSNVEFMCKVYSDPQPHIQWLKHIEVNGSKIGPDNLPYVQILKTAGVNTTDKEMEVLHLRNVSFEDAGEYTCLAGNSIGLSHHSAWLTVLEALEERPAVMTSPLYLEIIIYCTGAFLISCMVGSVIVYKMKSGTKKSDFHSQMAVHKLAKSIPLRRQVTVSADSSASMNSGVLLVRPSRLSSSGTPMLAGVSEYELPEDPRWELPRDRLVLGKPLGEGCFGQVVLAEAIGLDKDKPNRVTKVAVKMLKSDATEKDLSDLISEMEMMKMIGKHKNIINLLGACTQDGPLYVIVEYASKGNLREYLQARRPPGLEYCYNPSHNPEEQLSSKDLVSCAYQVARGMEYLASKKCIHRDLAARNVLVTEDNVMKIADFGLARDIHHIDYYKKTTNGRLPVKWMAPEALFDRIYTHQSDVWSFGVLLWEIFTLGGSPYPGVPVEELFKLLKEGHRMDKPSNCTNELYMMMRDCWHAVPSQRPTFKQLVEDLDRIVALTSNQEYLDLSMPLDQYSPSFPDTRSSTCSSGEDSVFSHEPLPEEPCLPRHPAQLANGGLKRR
Chain of FGFR3 (P22607 whole entry, looked up): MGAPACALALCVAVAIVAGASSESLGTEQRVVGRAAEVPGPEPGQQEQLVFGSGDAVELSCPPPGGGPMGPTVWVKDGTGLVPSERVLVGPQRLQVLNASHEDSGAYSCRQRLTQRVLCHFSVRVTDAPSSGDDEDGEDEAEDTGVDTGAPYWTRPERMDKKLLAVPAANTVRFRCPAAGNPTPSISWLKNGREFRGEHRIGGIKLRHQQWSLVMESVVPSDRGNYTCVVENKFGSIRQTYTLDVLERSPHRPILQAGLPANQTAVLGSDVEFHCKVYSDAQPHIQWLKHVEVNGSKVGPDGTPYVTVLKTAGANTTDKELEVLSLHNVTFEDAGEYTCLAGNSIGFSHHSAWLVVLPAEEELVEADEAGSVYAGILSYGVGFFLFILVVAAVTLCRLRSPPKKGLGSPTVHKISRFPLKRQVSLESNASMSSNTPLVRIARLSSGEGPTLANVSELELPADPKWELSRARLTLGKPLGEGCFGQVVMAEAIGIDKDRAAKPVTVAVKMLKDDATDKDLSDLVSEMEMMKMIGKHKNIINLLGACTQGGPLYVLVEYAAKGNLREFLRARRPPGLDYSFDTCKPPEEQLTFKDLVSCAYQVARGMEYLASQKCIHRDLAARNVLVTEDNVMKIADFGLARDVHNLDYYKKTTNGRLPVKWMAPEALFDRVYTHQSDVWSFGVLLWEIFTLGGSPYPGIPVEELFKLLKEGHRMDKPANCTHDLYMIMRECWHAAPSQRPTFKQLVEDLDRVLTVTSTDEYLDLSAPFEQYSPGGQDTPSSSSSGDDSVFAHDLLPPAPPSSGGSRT

Row | Sequence | phosphorylation enrichment [1] | phosphorylation enrichment [2] | phosphorylation enrichment [3] | phosphorylation enrichment [4] | phosphorylation enrichment [5] | phosphorylation enrichment [6] | phosphorylation enrichment [7] | phosphorylation enrichment [8] | phosphorylation enrichment [9] | phosphorylation enrichment [10] | phosphorylation enrichment [11] | phosphorylation enrichment [12] | phosphorylation enrichment [13] | SH2 binding enrichment [14] | SH2 binding enrichment [15] | SH2 binding enrichment [16]
1 | PESIMYPKFTT [NTRK3_Y744_R745P] | 0.66 | 0.513 | 0.586 | 0.656 | 0.794 | 0.549 | 1.09 | 0.707 | 0.739 | 0.717 | 0.579 | 0.595 | 0.397 | 0.748 | 0.594 | 0.596
2 | PFNAEYGGGGG [AKR1B10_Y316] | 1.19 | 1.35 | 0.693 | 1.06 | 0.802 | 0.871 | 1.49 | 1.14 | 1.66 | 0.627 | 0.879 | 0.43 | 0.285 | 0.554 | 0.417 | 0.379
3 | PFTRNYYVRAV [CYBA_Y87] | 1.16 | 0.753 | 1.41 | 0.704 | 0.792 | 0.422 | 1.29 | 0.614 | 0.666 | 0.85 | 0.608 | 0.747 | 0.558 | 0.799 | 1.21 | 0.615
4 | PGVNFYFRVSA | 1.73 | 0.914 | 0.759 | 1.14 | 1.88 | 0.708 | 2.13 | 0.653 | 0.817 | 1.53 | 0.743 | 1.37 | 0.599 | 0.759 | 0.701 | 0.424
5 | PIMSFYAALID [RYR1_Y2426_A2421P] | 1.58 | 1.45 | 1.24 | 0.706 | 1.33 | 0.734 | 1.46 | 0.49 | 0.647 | 1.54 | 0.732 | 0.905 | 0.487 | 0.969 | 0.585 | 0.571
6 | PIQLFYTRKNT [GHR_Y86_R89K] | 4.3 | 0.65 | 0.835 | 0.718 | 0.967 | 1.27 | 1.62 | 1.04 | 1.18 | 1.86 | 0.846 | 0.916 | 1.39 | 0.767 | 0.756 | 0.605
7 | PKSLFYLLLKP [TRPC6_Y775_L780P] | 1.64 | 0.759 | 0.569 | 0.708 | 1.12 | 0.568 | 2.1 | 0.439 | 0.513 | 1.73 | 0.963 | 1.31 | 0.684 | 1.16 | 1 | 0.851
8 | PLEGKYEWQEV [CDKN1B_Y74] | 1.29 | 0.57 | 0.572 | 0.619 | 0.743 | 0.613 | 1.49 | 0.379 | 0.483 | 1.11 | 0.452 | 0.816 | 0.465 | 0.675 | 0.516 | 3.88
9 | PLFGEYFTLQI [TP53_Y327_D324Y_YF] | 4.62 | 2.69 | 2.42 | 16.9 | 12.5 | 1.49 | 2.8 | 6.77 | 4.51 | 12.9 | 1.13 | 4.41 | 8.29 | 0.757 | 0.629 | 0.394
10 | PLKALYLQQRL [ATM_Y2969_P2974L] | 0.776 | 0.539 | 0.629 | 0.429 | 0.692 | 0.398 | 1.01 | 0.343 | 0.62 | 0.634 | 0.523 | 0.722 | 0.46 | 1.2 | 1.17 | 0.8
11 | PLKYLYPNIDR [STAT1_Y668_K673R] | 1.23 | 0.579 | 0.819 | 0.606 | 0.58 | 0.773 | 1.38 | 0.313 | 0.501 | 0.859 | 0.435 | 1.09 | 0.684 | 0.8 | 0.652 | 1.93
12 | PLLEFYRDIFT [CDAN1_Y713_YF] | 1.85 | 0.95 | 0.874 | 0.822 | 1.33 | 0.732 | 2.2 | 0.669 | 0.626 | 2 | 0.81 | 1.18 | 0.816 | 0.857 | 0.966 | 0.473
13 | PLQKTYNFNVL [SLC4A1_Y553_YF] | 0.686 | 0.709 | 0.645 | 0.554 | 0.593 | 0.383 | 0.903 | 0.602 | 0.477 | 1.05 | 0.426 | 0.627 | 0.43 | 1.11 | 0.633 | 0.53
14 | PQGVSYIFTID [DCX_Y103_R102S_YF] | 0.94 | 0.726 | 0.692 | 0.456 | 0.893 | 0.495 | 1.74 | 0.729 | 0.509 | 1.48 | 0.591 | 0.812 | 0.486 | 0.902 | 1.73 | 0.553
15 | PSELYYSKISP [SMG1_Y2254_G2258S] | 2.87 | 6.25 | 3.13 | 11.7 | 8.81 | 23.8 | 2.15 | 6.66 | 17.9 | 6.46 | 23.1 | 4.3 | 8.68 | 1.18 | 2.66 | 4.6
16 | PSQRCYVFFFS [PTEN_Y174_R173C_YF] | 1.37 | 0.865 | 0.735 | 0.837 | 1.35 | 0.703 | 1.73 | 0.79 | 0.616 | 1.24 | 0.646 | 0.882 | 0.646 | 1.2 | 1.11 | 0.705
